The values that follow come from patent US20170298096A1 (CANIMGUIDE THERAPEUTICS, published 2017).

Positions of bridges follow the written chain, without caps; N, C: chain ends. No end group written: not given here.

B1: cyclic peptide CLALNVMCG (peptide)
peptide: CLALNVMCG
modifications: bridge 1-8 (inferred); not fully specified
notes: also called lead cyclic peptide; lead looped peptide
B2: peptide 32814 (peptide)
peptide: RKLDTFFVKLSLFTERRR
notes: K1R and two added C-terminal R against P28R

For the first assay, the target named is T1, His-tagged P3028 (human, also: His-tag, terminus and sequence not given here).
T1 construct: used in solution in the PEPSCAN (rampo) ELISA; also called PGE73; His-tag-P3028; not shown: His tag
T1 peptide: VFDEFKPLVEEPQNLIK
As to the kind of experiment: positional scan, ELISA on chip with His-tag labeled P3028. In general terms: ELISA stands for enzyme-linked immunosorbent assay.
With CLRLNVFCG (bridge 1-8 (inferred)), the binding result is given as “binds”.

As to CLRLIVMCG (bridge 1-8 (inferred)), the binding result is on record as “binds”.

The target in a further assay is T1, His-tagged P3028. As to the kind of experiment: ELISA on chip with His-tag labeled P3028.
Description: (§1) Positional scans were performed in each position of the lead cyclic peptide was replaced with each of the other 19 L-amino acids.
Take CLALNVMCG (bridge 1-8 (inferred), also called lead looped peptide) [lead cyclic peptide CLALNVMCG]: the binding result is reported as “binds”.

Another assay deals with T2, His-tagged P3028 (human, not fully specified).
T2 construct: the tag is put first after 'PGE73=His-tag-P3028'; also called PGE73; not shown: His-tag
T2 peptide: {His‑tag}-VFDEFKPLVEEPQNLIK
Description: chip ELISA with His-tag labelled P3028.
In the case of B1, the binding result is recorded as “binds”.

A further assay has as its target T1, His-tagged P3028. Description: positional scan / PEPSCAN ELISA.
Turning to FFVKLS (also called peptide 32230; FFVKLS) [P28 core], the binding result is given as “binds”.

In a further assay the target is T2, His-tagged P3028. Description: chip ELISA with His-tag labelled P3028, positional scan.
Description: as §1
For the molecule CLRLIVMCG (bridge 1-8 (inferred); not fully specified), the binding result was “binds”.

CLRLNVFCG (bridge 1-8 (inferred); not fully specified): the binding result was “binds”.

The target in a further assay is Artificial Cell Surface (ACS): biotinylated cell surface proteins of PBMCs bound to streptavidin columns. As to the kind of experiment: trypsin-digested dHSA adsorbed on ACS column, MALDI-TOF ms.
VFDEFKPLVEEPQNLIK registered a Percent Absorbed of 60%.

Molecule QNCELFEQLGEYK [albumin fragment O…] registered a Percent Absorbed of 20%.

Molecule SLHTLFGDK yielded a Percent Absorbed of 36%.

LCTVATLR [albumin fragment LCTVATLR]: the Percent Absorbed came out at 35%.

With LKECCEKPLLEK, the Percent Absorbed was 36%.

Take AVMDDFAAFVEK: the Percent Absorbed was found to be 23%.

Take YLYEIAR [albumin fragment YLYEIAR]: the Percent Absorbed came to 34%.

In turn, KYLYEIAR [albumin fragment KYLYEIAR] came in with a Percent Absorbed of 71%.

The molecule DDNPNLPR [albumin fragment DDNPNLPR] yielded a Percent Absorbed of 1%.

Turning to VPQVSTPTLVEVSR, the Percent Absorbed was 59%.

Regarding NECFLQHK [albumin fragment NECFLQHK], the Percent Absorbed was 22%.

The molecule VHTECCHGDLLECADDR gave a Percent Absorbed of 13%.

On to CCTESLVNR, for which the Percent Absorbed was 26%.

As for FKDLGEENFK, the Percent Absorbed turned out to be 8%.

As to CCAAADPHECYAK, the Percent Absorbed was 32%.

Molecule AAFTECCQAADK displayed a Percent Absorbed of 29%.

In turn, KVPQVSTPTLVEVSR came in with a Percent Absorbed of 64%.

For LDELRDEGK, the Percent Absorbed is 2%.

Molecule RPCFSALEVDETYVPK gave a Percent Absorbed of 42%.

Regarding YICENQDSISSK, the Percent Absorbed came out at 3%.

Consider FQNALLVR [albumin fragment FQNALLVR], for which the Percent Absorbed was determined as 41%.

For another assay the target is unchanged. Description: Asp-N-digested dHSA adsorbed on ACS column, MALDI-TOF ms.
Consider ICTLSEKERQIKKQTALVELVKHKPKATKEQLKAVM [Asp-N-generated albumin fragment 536-572], for which the Percent Absorbed worked out at 100%.

As for YLSVVLNQLCVLHEKTPVSDRVTKCCCTESLVNRRPFSALEV [Asp-N-generated albumin fragment 475-517], the Percent Absorbed is 37%.

RVTKCCTESLVNRRPCFSALEVDETYVPKEFNAETFTFHA [Asp-N-generated albumin fragment 495-535] registered a Percent Absorbed of 100%.

For VFLGMFLYEYARRHPDYSVVLLLRLAKTYETTLEKCCAAA [Asp-N-generated albumin fragment 348-388], the Percent Absorbed came out at 100%.

DDKETCFAEEGKKLVAASQAALGL [Asp-N-generated albumin fragment 586-609] gave a Percent Absorbed of 100%.

In turn, DKLCTVATLRETYGEM [Asp-N-generated albumin fragment 96-112] registered a Percent Absorbed of 65%.

Consider YSVVLLLRLAKTYETTLEKCCAAADPHECYAKVF [Asp-N-generated albumin fragment 364-398], for which the Percent Absorbed was 100%.

As to LGEENFKALVLIAFAQYLQQCPFEDHVKLVNEVTEFAKTCVA [Asp-N-generated albumin fragment 37-79], the Percent Absorbed was found to be 100%.

DETYVPKEFNAETFTHA [Asp-N-generated albumin fragment 518-535]: the Percent Absorbed was 86%.

As to DHVKLVNEVTEFAKTCVA [Asp-N-generated albumin fragment 62-79], the Percent Absorbed is 100%.

LAKYICENQDSISSKLKECCEKPLLEKHCIAEVEN [Asp-N-generated albumin fragment 283-319]: the Percent Absorbed came to 100%.

On to DSISSKLKECCEKPLLEKSHCIAEVEN [Asp-N-generated albumin fragment 293-319], for which the Percent Absorbed was 65%.

The molecule KLCTVATLRETYGEMADCCAKQEPERNECFLQHK [Asp-N-generated albumin fragment 96-130] registered a Percent Absorbed of 100%.

As to DRVTKCCTESLVNRRPCFSALEV [Asp-N-generated albumin fragment 495-517], the Percent Absorbed was determined as 87%.

A further assay addresses T3, His-tagged P3028 peptide (PGE73) (human).
T3 construct: also called His-tag-P3028; not shown: His-tag
T3 peptide: VFDEFKPLVEEPQNLIK
As to the kind of experiment: positional scan, PEPSCAN ELISA on chip.
KKLDTVMVKLQLMTER (Four changes against P28R) [peptide 30680]: the binding result was “binds”.

For B2, the binding result was “binds”.

The target in a further assay is T3, His-tagged P3028 peptide (PGE73). As to the kind of experiment: PEPSCAN ELISA; peptide on card, His-tagged P3028 in solution.
Description: After washing, the peroxidase substrate 2,2′-azine-di-3-ethylbenzthiazoline sulfonate (ABTS) and 2 μL of 3% H2O2 were added. The binding capacity of the mAb was measured as a color development at 405 nm (optical density, OD405). The color development was quantified with a charge-coupled device (CCD)—camera and an image processing system.
The OD405-values obtained by a CCD-camera was considered as raw data values (“rampo values,” “rampo units,” or “rampo scores”). […] First the CCD-camera made a picture of the card before peroxidase coloring and then again a picture after the peroxidase coloring. […] These values were copied into an excel file and labeled as a raw data file. One follow-up manipulation was allowed. Sometimes a well can contain an air-bubble resulting in a false-positive value. If manual inspection of the cards detect an air-bubble the value are set to 0 for that well.
Consider KKLDTFFVKLQLFTER (P28R variant on PEPSCAN card) [SEQ ID NO: 15], for which the RAMPO Score is > 500 rampo units.

Consider KKLDTFFVKLSQFTER (P28R variant on PEPSCAN card) [SEQ ID NO: 19], for which the RAMPO Score is > 500 rampo units.

Consider KKLDTFFVKLSMFTER (P28R variant on PEPSCAN card) [SEQ ID NO: 21], for which the RAMPO Score is > 500 rampo units.

Consider KKLDTFFVKLSVFTER (P28R variant on PEPSCAN card) [SEQ ID NO: 20], for which the RAMPO Score is > 500 rampo units.

With KKLDTFFVKLSLMTER (P28R variant on PEPSCAN card) [SEQ ID NO: 22], the RAMPO Score is > 500 rampo units.

In the case of KKLDQFFVKLSLFTER (P28R variant on PEPSCAN card) [SEQ ID NO: 6], the RAMPO Score is > 500 rampo units.

As to KKGDTFFVKLSLFTER (P28R variant on PEPSCAN card) [SEQ ID NO: 4], the RAMPO Score was > 500 rampo units.

On to KKEDTFFVKLSLFTER (P28R variant on PEPSCAN card) [SEQ ID NO: 5], for which the RAMPO Score was > 500 rampo units.

Take KKLDTFFVKVSLFTER (P28R variant on PEPSCAN card) [SEQ ID NO: 14]: the RAMPO Score was > 500 rampo units.

As to KKLDTFFVKLSLFPER (P28R variant on PEPSCAN card) [SEQ ID NO: 32], the RAMPO Score is > 500 rampo units.

KKLDTFFVKLSLFRER (P28R variant on PEPSCAN card) [SEQ ID NO: 33]: the RAMPO Score was > 500 rampo units.
